This data set can be described thus: protein stability index of a GFP-peptide fusion (yeast GPS) (PSI 1-4); higher = more stable; sorted into four equal gates, so the index is relative within each strain. An outline of the steps: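 Mid-log yeast cultures in leucine-free medium, carrying a pooled plasmid library, were sorted into four equal gates by their GFP/Cherry fluorescence ratio. Each plasmid expressed Cherry along with GFP fused upstream of a tiled 17-residue yeast protein peptide. Plasmids recovered from each gate were PCR-amplified and Illumina-sequenced, with reads assigned to strains by barcodes. The protein stability index was obtained by summing each gate's read frequency weighted by its gate number.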

± gives the uncertainty stated by the source.

With FDQAGKKVSRRNARAAR [RPL13B], the protein stability index is 3.08 ± 0.091 (doa10∆), 3.01 ± 0.14 (pdr5∆), 2.67 ± 0.28 (san1∆) and 3.29 ± 0.094 (ubr1∆).
With LEHVLLVPTASFFIASQ [FAS1], the protein stability index by setting is: (doa10∆) 1.25 ± 0.033; (pdr5∆) 1.46 ± 0.038; (san1∆) 1.45 ± 0.064; (ubr1∆) 1.31 ± 0.027.
For the sequence EELKNMFLYILKHLEEM [RRI2], the protein stability index is, setting by setting: (doa10∆) 2.25 ± 0.16; (pdr5∆) 1.93 ± 0.11; (san1∆) 1.32 ± 0.11; (ubr1∆) 1.73 ± 0.097.
As to WVAPQESSHEQEEFVQF [ECM29], the protein stability index reads like this: (doa10∆) 3.26 ± 0.15; (pdr5∆) 3.42 ± 0.13.
Take EVRGQVPVIESAGFETD [SNU114]: the protein stability index reads like this: (doa10∆) 1.37 ± 0.052; (pdr5∆) 1.59 ± 0.06; (san1∆) 1.49 ± 0.15; (ubr1∆) 1.86 ± 0.057.
In the same order, the values of NQIQRQQQQQFRHHVQI [SNF5] are 1.86 ± 0.04, 2.08 ± 0.045, 1.88 ± 0.085 and 1.91 ± 0.03.
On to SNGVLNVDNQTSDLVKS [RPS17A], for which the protein stability index (doa10∆) stood at 2.83 ± 0.12, the protein stability index (pdr5∆) amounted to 2.88 ± 0.12, the protein stability index (san1∆) was determined as 3.06 ± 0.18 and the protein stability index (ubr1∆) came to 2.86 ± 0.075.
In the same order, the values of SNGEVLEVGKNNFCALY [RPN14] are 2.34 ± 0.07, 2.05 ± 0.11, 1.64 ± 0.14 and 2.05 ± 0.036.
With PDRHVIFLAERRILPKP [RPS7B], the protein stability index (doa10∆) was 2.81 ± 0.18, the protein stability index (pdr5∆) is 2.75 ± 0.14 and the protein stability index (san1∆) was determined as 2.99 ± 0.096.
Take QSLLSLYFEIIHGVLKN [FAS2]: the protein stability index is, setting by setting: (doa10∆) 2.37 ± 0.12; (pdr5∆) 1.84 ± 0.076; (san1∆) 2.14 ± 0.17; (ubr1∆) 1.51 ± 0.045.
Consider PYMPYYYYYHPMNAPTP [DSN1], for which the protein stability index was found to be 2.52 ± 0.043 (doa10∆), 2.71 ± 0.043 (pdr5∆), 2.64 ± 0.045 (san1∆) and 2.69 ± 0.032 (ubr1∆).
On the same counts, the results for YARADTHFLLNIYDQLR [RRP6] are 2.54 ± 0.045, 2.34 ± 0.042, 2.44 ± 0.05 and 2.58 ± 0.027.
As to LKRMEILKSPHLSKSPA [SIR4], the protein stability index runs as follows: (doa10∆) 2.96 ± 0.06; (pdr5∆) 2.93 ± 0.066; (san1∆) 2.95 ± 0.058; (ubr1∆) 2.78 ± 0.045.
In the same order, the values of LKVYKVGDIVDIKANGS [RPL21A] are 2.35 ± 0.054, 2.14 ± 0.044, 2.07 ± 0.052 and 2.11 ± 0.029.
For MDLFMSTLGDCLGIKDE [GAL11], the protein stability index by setting is: (doa10∆) 3.54 ± 0.25; (san1∆) 3.38 ± 0.16; (ubr1∆) 3.22 ± 0.2.
The sequence TLEAKIGGLLSKVREEV [RPO31] had a protein stability index (doa10∆) of 3 ± 0.11, a protein stability index (pdr5∆) of 3.33 ± 0.11, a protein stability index (san1∆) of 3.6 ± 0.084 and a protein stability index (ubr1∆) of 2.87 ± 0.084.
In the same order, the values of SNGSGIVAAGGGSGAAT [CSL4] are 3.53 ± 0.12, 3.53 ± 0.18, 3.45 ± 0.11 and 3.48 ± 0.11.
For GALKGASDGGLYVPHSE [RPL5], the protein stability index by setting is: (doa10∆) 1.91 ± 0.083; (pdr5∆) 1.88 ± 0.073; (san1∆) 2.83 ± 0.088; (ubr1∆) 2.67 ± 0.052.
As for KNEKLILEESLNAIILK [SMC3], the protein stability index is, setting by setting: (doa10∆) 2.74 ± 0.075; (pdr5∆) 2.64 ± 0.087; (san1∆) 2.18 ± 0.17; (ubr1∆) 2.65 ± 0.064.
In the same order, the values of RTLWPEFIPPDPTKVTE [SSN8] are 2.49 ± 0.042, 2.73 ± 0.038, 2.78 ± 0.04 and 2.671 ± 0.026.
In turn, HYGNEHIRRMVPLAMGI [RPN1] had a protein stability index (doa10∆) of 1.29 ± 0.082, a protein stability index (pdr5∆) of 1.33 ± 0.064, a protein stability index (san1∆) of 1.24 ± 0.091 and a protein stability index (ubr1∆) of 1.47 ± 0.065.
In the same order, the values of SRTRAHAQSKREGRHSG [RPL19A] are 2.87 ± 0.076, 2.85 ± 0.07, 2.83 ± 0.042 and 2.99 ± 0.037.
On the same counts, the results for MSPFLRKVVKPSSLNSD [SRB4] are 2.41 ± 0.058, 2.87 ± 0.061, 2.03 ± 0.081 and 2.34 ± 0.044.
On the same counts, the results for FQFKLLQSNSKLASTLE [SMC4] are 2.29 ± 0.056, 2.37 ± 0.042, 2.42 ± 0.055 and 2.58 ± 0.038.
As to GTQMTLKTFHFAGVASM [RPO31], the protein stability index by setting is: (doa10∆) 1.63 ± 0.11; (pdr5∆) 1.85 ± 0.088; (san1∆) 1.68 ± 0.13; (ubr1∆) 2.1 ± 0.12.
In the same order, the values of PLSTYNKNGNAVCSTAT [PGD1] are 2.37 ± 0.096, 2.63 ± 0.075, 2.37 ± 0.078 and 2.72 ± 0.088.
On to EQVAEEAAAAEEGEEEE [RPS0B], for which, where the note is “pdr5∆”, the protein stability index was found to be 3.33 ± 0.26.
